# Measured values: paper PMC5548924, “The N-Terminal Region of Fibrillin-1 Mediates a Bipartite Interaction with LTBP1” (Structure(London, England:1993), 2017)
# Biological target: T1, FBN1^E2cbEGF1 (fibrillin-1 EGF2-EGF3-Hyb1-cbEGF1) (human, UniProt P35555 113-287, C204 replaced with a serine)
# T1 construct: fibrillin-1 (FBN1), human, domains EGF2-EGF3-Hyb1-cbEGF1; His6 tag, Ser-Ala spacer and factor Xa site (Ile-Glu-Gly-Arg) at the N-terminus, tag removed with factor Xa; 15N-labelled in some NMR titrations; Construct described in Robertson et al., 2013b; also called FBN1 EGF2-EGF3-Hyb1-cbEGF1; four-domain FBN1 fragment; not shown: His6, N-terminal, cleaved
# T1 sequence (P35555 other isoform, or with tags, fused parts or gaps C204 replaced with a serine | C204 replaced with a serine): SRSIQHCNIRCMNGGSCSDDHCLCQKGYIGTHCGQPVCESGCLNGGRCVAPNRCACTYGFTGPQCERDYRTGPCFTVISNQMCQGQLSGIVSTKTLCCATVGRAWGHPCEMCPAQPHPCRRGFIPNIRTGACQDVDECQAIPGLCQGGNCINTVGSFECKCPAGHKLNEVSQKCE
# Assay: SPR; Biacore T100; FBN1 fragments amine-coupled to a CM5 chip (1000 RU each flow cell), LTBP1 fragments as analytes; 50 mM Tris pH 7.5, 150 mM NaCl, 0.05% Tween 20, 2 mM CaCl2; 25°C; multi-cycle and single-cycle; Kd estimated from Scatchard plots
# Details: both partners purified
row,Binder,Kd
1,LTBP1^E3cbEGF15 (LTBP1 EGF3-cbEGF15) (domain or fragment) QAEECGILNGCENGRCVRVQEGYTCDCFDGYHLDTAKMTCVDVNECDELNNRMSLCKNAKCINTDGSYKCLCLPGYVPSDKPNYCT,~100 µM
2,LTBP1^TB3E3 (LTBP1 TB3-EGF3) (domain or fragment) IRPAESNEQIEETDVYQDLCWEHLSDEYVCSRPLVGKQTTYTECCCLYGEAWGMQCALCPLKDSDDYAQLCNIPVTGRRQPYGRDALVDFSEQYTPEADPYFIQDRFLNSFEELQAEECGILNGCENGRCVRVQEGYTCDCFDGYHLDTAKMTCV,0.5 to 1 µM
3,"LTBP1^cbEGF14TB3 (LTBP1 cbEGF14-TB3) (domain or fragment, Ca2+-bound cbEGF14; disulfide-bonded (refolded); limits run from the start of cbEGF14 to just after the last Cys of TB3 by convention, exact construct ends not given; vector-derived N-terminal …) MDECQDPSSCIDGQCVNTEGSYNCFCTHPMVLDASEKRCIRPAESNEQIEETDVYQDLCWEHLSDEYVCSRPLVGKQTTYTECCCLYGEAWGMQCALCPLKDSDDYAQLCNIPVTGRRQPY",~300 µM
